The target in assay [1] is T1, Cytotoxic necrotizing factor 1 (CNF1), recombinant FLAG-tagged, full length (uropathogenic Escherichia coli (UPEC), UniProt Q47106 1-1014).
T1 construct: also called FLAG-CNF1; FLAG-tagged full-length CNF1; source: recombinant, purified (additionally by size exclusion chromatography)
Kind of assay: co-IP; in vitro, purified proteins; truncated MYC-tagged JAK1 proteins precipitated, FLAG-tagged CNF1 detected and normalised to the MYC-JAK1 in the IP. The settings on record: both partners purified.

In assay [2] the target is T2, MYC-tagged JAK1, full length (UniProt P23458 1-1154).
T2 construct: also called MYC-JAK1; MYC-tagged full-length JAK1; source: HeLa, transfected, in lysate
Kind of assay: co-IP; in vitro, purified proteins; truncated FLAG-tagged CNF1 proteins precipitated, MYC-tagged JAK1 detected and normalised to the FLAG-CNF1 in the IP. The settings on record: both partners purified.

B1: MYC-JAK1 truncation mutant 1-855 (domain or fragment)
chain: MQYLNIKEDCNAMAFCAKMRSSKKTEVNLEAPEPGVEVIFYLSDREPLRLGSGEYTAEELCIRAAQACRISPLCHNLFALYDENTKLWYAPNRTITVDDKMSLRLHYRMRFYFTNWHGTNDNEQSVWRHSPKKQKNGYEKKKIPDATPLLDASSLEYLFAQGQYDLVKCLAPIRDPKTEQDGHDIENECLGMAVLAISHYAMMKKMQLPELPKDISYKRYIPETLNKSIRQRNLLTRMRINNVFKDFLKEFNNKTICDSSVSTHDLKVKYLATLETLTKHYGAEIFETSMLLISSENEMNWFHSNDGGNVLYYEVMVTGNLGIQWRHKPNVVSVEKEKNKLKRKKLENKHKKDEEKNKIREEWNNFSYFPEITHIVIKESVVSINKQDNKKMELKLSSHEEALSFVSLVDGYFRLTADAHHYLCTDVAPPLIVHNIQNGCHGPICTEYAINKLRQEGSEEGMYVLRWSCTDFDNILMTVTCFEKSEQVQGAQKQFKNFQIEVQKGRYSLHGSDRSFPSLGDLMSHLKKQILRTDNISFMLKRCCQPKPREISNLLVATKKAQEWQPVYPMSQLSFDRILKKDLVQGEHLGRGTRTHIYSGTLMDYKDDEGTSEEKKIKVILKVLDPSHRDISLAFFEAASMMRQVSHKHIVYLYGVCVRDVENIMVEEFVEGGPLDLFMHRKSDVLTTPWKFKVAKQLASALSYLEDKDLVHGNVCTKNLLLAREGIDSECGPFIKLSDPGIPITVLSRQECIERIPWIAPECVEDSKNLSVAADKWSFGTTLWEICYNGEIPLKDKTLIEKERFYESRCRPVTPSCKELADLMTRCMNYDPNQRPFFRAIMRDINKLEEQNPDI
notes: source: recombinant, purified
For the molecule B1, in assay [1], the binding result was “binds”.

B2: FLAG-CNF1 truncation mutant 1-720 (N2) (domain or fragment)
chain: MGNQWQQKYLLEYNELVSNFPSPERVVSDYIKNCFKTDLPWFSRIDPDNAYFICFSQNRSNSRSYTGWDHLGKYKTEVLTLTQAALINIGYRFDVFDDANSSTGIYKTKSADVFNEENEEKMLPSEYLHFLQKCDFAGVYGKTLSDYWSKYYDKFKLLLKNYYISSALYLYKNGELDEREYNFSMNALNRSDNISLLFFDIYGYYASDIFVAKNNDKVMLFIPGAKKPFLFKKNIADLRLTLKELIKDSDKQQLLSQHFSLYSRQDGVSYAGVNSVLHAIENDGNFNESYFLYSNKTLSNKDVFDAIAISVKKRSFSDGDIVIKSNSEAQRDYALTILQTILSMTPIFDIVVPEVSVPLGLGIITSSMGISFDQLINGDTYEERRSAIPGLATNAVLLGLSFAIPLLISKAGINQEVLSSVINNEGRTLNETNIDIFLKEYGIAEDSISSTNLLDVKLKSSGQHVNIVKLSDEDNQIVAVKGSSLSGIYYEVDIETGYEILSRRIYRTEYNNEILWTRGGGLKGGQPFDFESLNIPVFFKDEPYSAVTGSPLSFINDDSSLLYPDTNPKLPQPTSEMDIVNYVKGSGSFGDRFVTLMRGATEEEAWNIASYHTAGGSTEELHEILLGQGPQSSLGFTEYTSNVNSADAASRRHFLVVIKVHVKYITNNNVSYVNHWAIPDEAPVEVLAVVDRRFNFPEPSTPPDISTIRKLLSLRYFKES
notes: source: recombinant, purified
For the molecule B2, the binding result in assay [2] is “binds”.

B3: FLAG-CNF1 truncation mutant 190-1014 (C1) (domain or fragment)
chain: RSDNISLLFFDIYGYYASDIFVAKNNDKVMLFIPGAKKPFLFKKNIADLRLTLKELIKDSDKQQLLSQHFSLYSRQDGVSYAGVNSVLHAIENDGNFNESYFLYSNKTLSNKDVFDAIAISVKKRSFSDGDIVIKSNSEAQRDYALTILQTILSMTPIFDIVVPEVSVPLGLGIITSSMGISFDQLINGDTYEERRSAIPGLATNAVLLGLSFAIPLLISKAGINQEVLSSVINNEGRTLNETNIDIFLKEYGIAEDSISSTNLLDVKLKSSGQHVNIVKLSDEDNQIVAVKGSSLSGIYYEVDIETGYEILSRRIYRTEYNNEILWTRGGGLKGGQPFDFESLNIPVFFKDEPYSAVTGSPLSFINDDSSLLYPDTNPKLPQPTSEMDIVNYVKGSGSFGDRFVTLMRGATEEEAWNIASYHTAGGSTEELHEILLGQGPQSSLGFTEYTSNVNSADAASRRHFLVVIKVHVKYITNNNVSYVNHWAIPDEAPVEVLAVVDRRFNFPEPSTPPDISTIRKLLSLRYFKESIESTSKSNFQKLSRGNIDVLKGRGSISSTRQRAIYPYFEAANADEQQPLFFYIKKDRFDNHGYDQYFYDNTVGLNGIPTLNTYTGEIPSDSSSLGSTYWKKYNLTNETSIIRVSNSARGANGIKIALEEVQEGKPVIITSGNLSGCTTIVARKEGYIYKVHTGTTKSLAGFTSTTGVKKAVEVLELLTKEPIPRVEGIMSNDFLVDYLSENFEDSLITYSSSEKKPDSQITIIRDNVSVFPYFLDNIPEHGFGTSATVLVRVDGNVVVRSLSESYSLNADASEISVLKVFSKKF
notes: source: recombinant, purified
On to B3, for which the binding result in assay [2] was “binds”.

B4: MYC-JAK1 truncation mutant 1-544 (domain or fragment)
chain: MQYLNIKEDCNAMAFCAKMRSSKKTEVNLEAPEPGVEVIFYLSDREPLRLGSGEYTAEELCIRAAQACRISPLCHNLFALYDENTKLWYAPNRTITVDDKMSLRLHYRMRFYFTNWHGTNDNEQSVWRHSPKKQKNGYEKKKIPDATPLLDASSLEYLFAQGQYDLVKCLAPIRDPKTEQDGHDIENECLGMAVLAISHYAMMKKMQLPELPKDISYKRYIPETLNKSIRQRNLLTRMRINNVFKDFLKEFNNKTICDSSVSTHDLKVKYLATLETLTKHYGAEIFETSMLLISSENEMNWFHSNDGGNVLYYEVMVTGNLGIQWRHKPNVVSVEKEKNKLKRKKLENKHKKDEEKNKIREEWNNFSYFPEITHIVIKESVVSINKQDNKKMELKLSSHEEALSFVSLVDGYFRLTADAHHYLCTDVAPPLIVHNIQNGCHGPICTEYAINKLRQEGSEEGMYVLRWSCTDFDNILMTVTCFEKSEQVQGAQKQFKNFQIEVQKGRYSLHGSDRSFPSLGDLMSHLKKQILRTDNISFMLKRCC
notes: source: recombinant, purified
For the molecule B4, the binding result in assay [1] is reported as “binds”.

For the origin of these results see article PMC9426534, “Interactions of Bacterial Toxin CNF1 and Host JAK1/2 Driven by Liquid-Liquid Phase Separation Enhance Macrophage Polarization” (mBio, 2022).
